Measured values reported in US20260199576A1 (KYOTO UNIVERSITY, published 2026).
Positions count from the first letter of the chain named.

B1: UC antibody 7 (antibody, V domains shown)
VH: VQLVESGGGVVQPGRSLRLSCAASGFTFSSYGMHWVRQAPGKGLEWVAFISYDGINKYYADSVKGRFTISRDNSKDTLYLQMNSLRAEDTAVYYCAKVIPRIRGSGDKAGIKDYYYYGMDVWGQGTTVTVSS
VL: EIVLTQSPATLSLSPGERATLSCRASQSVSSYLAWYQQKPGQAPRLLIYDASNRATGIPARFSGSGSGTDFTLTISSLEPEDFAVYYCQQRSNWLTFGGGTKVEIK
notes: Human monoclonal IgG from a UC patient, expressed in CHO cells
B2: UC antibody 1 (antibody, V domains shown)
VH: QVQLVESGGGVVQPGRSLRLSCAASGFTFSSYGMHWVRQAPGKGLEWVAFISYDGINKYYADSVKGRFTISRDNSKDTLYLQMNSLRAEDTAVYYCAKVIPRIRGSGDKAGIKDYYYYGMDVWGQGTTVTVSS
VL: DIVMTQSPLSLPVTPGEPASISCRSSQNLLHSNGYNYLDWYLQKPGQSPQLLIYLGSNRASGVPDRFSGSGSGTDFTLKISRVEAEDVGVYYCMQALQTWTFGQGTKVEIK
notes: Human monoclonal IgG from a UC patient, expressed in CHO cells; also called monoclonal autoantibody derived from an ulcerative colitis patient; anti-integrin αvβ6 antibody (UC antibody 1)
B3: UC antibody 9 (antibody, V domains shown)
VH: B2 VH
VL: QSVLTQPPSVSAAPGQKVTISCSGSSSNIGNNYVSWYQQLPGTAPKLLIYDNNKRPSGIPDRFSGSKSGTSATLGITGLQTGDEADYYCGTWDSSLSAVVFGGGTKLTVL
notes: as for B1
B4: UC antibody 8 (antibody, V domains shown)
VH: B2 VH with G33A, S75P, Q125R
VL: not shown
notes: as for B1
B5: UC antibody 5 (antibody, V domains shown)
VH: QVQLVQSGAEVKKPGASVKVSCKASGHTFSSFGISWVRQAPGQGLEWMGWISAYNGNTNSAQKFQGRVTMTTDTSTSTAYMELRSLRSDDTAVYYCARDRGFRGDTAMIKGGMDVWGQGTTVTVSS
VL: VLTQPPSVSVSPGQTASITCSGDKLGDKYACWYQQKSGQAPVLVIYQDSKRPSGIPERFSGSNSGNTATLTISGTQAMDEADYYCQAWDSSTALVFGGGTKLTVL
notes: as for B1
B6: PSC antibody 1 (antibody, V domains shown)
VH: B5 VH
VL: QSALTQPASVSGSPGQSITISCTGTSSDVGGYNYVSWYQQHPGKAPQLIIYDVSKRPSGVSNRFSGSRSGNTASLTISGLQAEDEADYYCSSYTSSSTYVFGTGTKVTVL
notes: Human monoclonal IgG from a PSC patient, expressed in CHO cells
B7: UC antibody 4 (antibody, V domains shown)
VH: B5 VH with H27Y
VL: SYELTQPPSVSVSPGQTARITCSGDALPKQYAYWYQQKPGQAPVLVIYKDSERPSGIPERFSGSSSGTMATLTISGAQVEDEGDYYCSSTDSNSQRVFGGGTKLTVL
notes: as for B1
B8: UC antibody 6 (antibody, V domains shown)
VH: B5 VH
VL: QSVLTQPPSVSGAPGQRVTISCTGSSSTIGANNDVHWYQQLPGTAPKLLIYGNKNRPSGVSDRFSGSKSGTSASLAITGLQAEDEADYYCQSYDSSLSDLYVFGTGTKVTVL
notes: as for B1
B9: UC antibody 2 (antibody, V domains shown)
VH: EVQLVESGGGLVKPGGSLRVSCVVSGFTITNAWMSWVRQAPGKGLEWVGRSKSKTDGGTTDYIAPVKGRFTISRDDSKNTLYLEMNSLKTEDTAVYYCATDRPLKLRGRDYNYYVMDVWGQGTTVTVSS
VL: DIQMTQSPSSLSASVGDRVTITCRASQSIARSLNWYQQKPGKAPNLLIYAASTLQSGVPSRFSGSGSGTDFTLTIGSLQPEDFATYSCQQSSSSPLTFGGGTRVEIK
notes: as for B1
B10: UC antibody 3 (antibody, V domains shown)
VH: QVQLVESGGGVVQPGRSLRVSCAASGFTFSIYGMHWVRQAPGKGLEWVAVISSDGTNQYYADSVKGRFTISRDNSNNTVYLQMNSLGGEDTAVYYCAKDRGRRGDSGWYRHFDYWGQGTLVTVSS
VL: B3 VL with I29N, L40V
notes: as for B1

Tests used:
[1] = molecular target: T1, human integrin αvβ6 (ACROBiosystems, product number IT6-H52E1) (human, UniProt P06756 31-992; P18564 22-707); assay: competition ELISA: integrin αvβ6 coated, peptide RGDS 0-100 µg/mL added together with PSC patient IgG 1:100 (competitor); bound human IgG detected (A450)
T1 construct: also called histidine-tagged integrin αvβ6; histidine-tagged extracellular domain protein of integrin αvβ6; not shown: linker and basic tail on the β6 chain
T1 sequence (P06756 31-992 limits assumed, chain 1 of 2): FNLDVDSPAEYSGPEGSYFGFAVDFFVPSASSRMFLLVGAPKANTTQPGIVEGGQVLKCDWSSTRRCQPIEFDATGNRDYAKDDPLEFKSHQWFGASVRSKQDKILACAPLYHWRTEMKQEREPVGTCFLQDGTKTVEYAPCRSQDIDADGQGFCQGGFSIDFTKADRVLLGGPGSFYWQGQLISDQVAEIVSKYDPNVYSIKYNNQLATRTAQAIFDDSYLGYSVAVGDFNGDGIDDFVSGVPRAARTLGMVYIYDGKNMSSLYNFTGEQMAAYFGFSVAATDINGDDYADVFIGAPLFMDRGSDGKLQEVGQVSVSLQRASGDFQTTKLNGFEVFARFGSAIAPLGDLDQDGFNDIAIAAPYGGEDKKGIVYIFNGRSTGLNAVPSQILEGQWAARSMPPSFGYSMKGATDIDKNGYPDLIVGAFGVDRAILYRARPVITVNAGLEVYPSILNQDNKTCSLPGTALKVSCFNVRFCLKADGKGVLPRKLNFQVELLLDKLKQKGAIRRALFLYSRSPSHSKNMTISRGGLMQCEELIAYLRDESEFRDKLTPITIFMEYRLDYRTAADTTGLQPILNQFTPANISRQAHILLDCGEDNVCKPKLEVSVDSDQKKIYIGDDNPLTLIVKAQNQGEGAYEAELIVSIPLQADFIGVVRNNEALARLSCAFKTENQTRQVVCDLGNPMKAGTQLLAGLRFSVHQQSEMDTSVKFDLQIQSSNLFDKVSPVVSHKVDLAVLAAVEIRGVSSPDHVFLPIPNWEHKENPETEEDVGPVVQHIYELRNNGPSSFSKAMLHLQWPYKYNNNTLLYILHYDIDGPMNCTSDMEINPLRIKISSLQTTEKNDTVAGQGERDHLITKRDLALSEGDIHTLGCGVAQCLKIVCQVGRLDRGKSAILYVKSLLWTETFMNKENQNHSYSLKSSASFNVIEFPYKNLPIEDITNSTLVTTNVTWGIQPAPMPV
T1 sequence (P18564 22-707 limits assumed, chain 2 of 2): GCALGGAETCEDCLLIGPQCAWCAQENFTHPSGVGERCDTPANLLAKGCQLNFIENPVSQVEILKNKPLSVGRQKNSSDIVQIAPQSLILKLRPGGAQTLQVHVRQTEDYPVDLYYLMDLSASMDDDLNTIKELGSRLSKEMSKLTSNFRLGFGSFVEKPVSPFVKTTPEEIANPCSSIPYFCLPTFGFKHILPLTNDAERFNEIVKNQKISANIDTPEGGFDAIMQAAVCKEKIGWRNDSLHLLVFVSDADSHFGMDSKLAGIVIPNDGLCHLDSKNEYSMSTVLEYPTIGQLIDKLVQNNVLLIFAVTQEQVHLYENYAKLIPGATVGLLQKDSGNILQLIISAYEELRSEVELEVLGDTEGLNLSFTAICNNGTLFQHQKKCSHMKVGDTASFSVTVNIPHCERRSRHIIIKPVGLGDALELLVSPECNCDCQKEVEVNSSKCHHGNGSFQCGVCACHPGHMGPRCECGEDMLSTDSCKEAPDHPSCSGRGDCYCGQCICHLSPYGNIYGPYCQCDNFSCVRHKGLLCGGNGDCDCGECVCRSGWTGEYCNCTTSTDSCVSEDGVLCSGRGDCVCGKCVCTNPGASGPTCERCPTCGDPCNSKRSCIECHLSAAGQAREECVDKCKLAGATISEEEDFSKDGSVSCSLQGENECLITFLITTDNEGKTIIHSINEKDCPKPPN
Procedure: A microtiter plate was coated with 100 μL/well of 2 μg/mL integrin αvβ6 overnight at 4° C., and then blocked. Peptide RGDS (SEQ ID NO: 9: Arg-Gly-Asp-Ser) or RGES (SEQ ID NO: 10: Arg-Gly-Glu-Ser) as RGD motif or RGE motif (control) was added together with 100 μL of patient-derived IgG dilution (1:100) to the plate, and the plate was incubated at room temperature for 60 minutes. After washing, 100 μl/well of an HRP-labeled anti-human IgG antibody (50,000-fold dilution; ab6759; Abcam) was added to the plate and the plate was incubated at room temperature for 60 minutes. After washing, the plate was incubated with 3,3′,5,5′-tetramethylbenzidine for 7 minutes, and an absorbance density (OD value) at 450 nm was measured to detect human IgG bound to integrin αvβ6 on the solid phase.

[2] = molecular target: T2, Biotinylated human integrin αvβ6 (ACROBiosystems, product number IT6-H82E4) (human, UniProt P06756 31-992; P18564 22-707, biotinylated (Avi tag at the C-terminus) ; Biotin on the Avi tag at the C-terminus of the αv chain; the tag is not in the letters.); assay: BLI (Octet RED96), biotinylated integrin αvβ6 on biosensor, antibody in solution
T2 construct: Bought heterodimer; also called biotinylated integrin αvβ6; not shown: basic tail on the β6 chain
T2 sequence (P06756 31-992 limits assumed, chain 1 of 2): as the sequence (P06756 31-992 limits assumed, chain 1 of 2) above
T2 sequence (P18564 22-707 limits assumed, chain 2 of 2): as the sequence (P18564 22-707 limits assumed, chain 2 of 2) above
Procedure: Next, the binding affinity of the obtained anti-integrin αvβ6 monoclonal antibodies derived from UC or PSC patients was determined. The KD value was measured by biolayer interferometry using Octet RED96 (Sartorius). A 100 nM solution of the antibody, and serially diluted solutions of biotinylated integrin αvβ6 protein in the range of 200 to 6.25 nM were prepared using a buffer containing 20 mM Tris, 150 mM NaCl, 1 mM CaCl₂, 1 mM MgCl₂, 0.1% human serum albumin (014-27604; Fujifilm Wako Pure Chemical Industries, Ltd.) and 0.02% Tween 20 (1610781; Bio-Rad), and added to a 96-well plate (Greiner; 655209) at 200 μL/well. The biotinylated integrin αvβ6 was allowed to bind for 5 minutes to a biosensor (18-5136; Sartorius) soaked in the buffer. After washing of the biosensor, the biosensor was immersed in each antibody solution for 5 minutes (binding reaction). Then, the sensor was immersed in the buffer solution for 1 minute (dissociation reaction). The binding dissociation constant (KD value) between “integrin αvβ6-each monoclonal antibody” was determined using the analysis software (Octet BLI Analysis) attached to the device.

[3] = molecular target: Integrin αvβ1 (ACRO Biosystems, IT1-H82W6) (UniProt P06756 31-992; P05556 21-728); assay: adsorption test: UC antibody 1 150 ng, His-tagged integrin 5 or 25 µg/mL and anti-His-tag magnetic agarose; remaining antibody measured by ELISA, adsorption rate
Procedure: (§1) The concentration of anti-integrin αvβ6 antibodies contained in the recovered solution was measured by ELISA. A microtiter plate was coated with 100 μL/well of 2 μg/mL integrin αvβ6 overnight at 4° C., followed by washing and blocking. After washing, the recovered reaction solution was diluted 10-fold and added at 100 µL/well to the plate, and the plate was incubated at room temperature for 60 minutes. After washing, an HRP-labeled anti-human IgG antibody (50,000-fold dilution; ab6759; Abcam) was added at 100 μL/well to the plate, and the plate was incubated at room temperature for 60 minutes. After washing, the plate was incubated with 3,3′,5,5′-tetramethylbenzidine for 7 minutes, and the absorbance density (OD value) at 450 nm was measured to detect human IgG bound to integrin αvβ6 on the solid phase.
(§2) Anti-histidine tag antibody-labeled magnetic agarose (MBL, D291-10) in the amount of 10 μL (5 μg of anti-his tag antibody), 150 ng of the monoclonal autoantibody derived from an ulcerative colitis patient prepared in Example 2 (UC antibody 1 shown in Table 1), and 5 μg/mL or 25 μg/mL of any of integrins as mentioned below were mixed and reacted by inversion mixing in a total of 500 μL of solution at 4° C. for 12 hours. The solution after the reaction was recovered. As a control, a mixture to which no integrin was added (a mixture of the above-mentioned agarose and autoantibody only) was used to perform the similar reaction. [0157] Integrin αvβ1 (ACRO Biosystems, IT1-H82W6) [0158] Integrin αvβ3 (ACRO Biosystems, IT3-H52E3) [0159] Integrin αvβ5 (ACRO Biosystems, IT5-H52W5) [0160] Integrin αvβ6 (ACRO Biosystems, IT6-H52E1) [0161] Integrin αvβ8 (ACRO Biosystems, IT8-H52W4)
(§3) In the same manner as described in Example 7, the concentration of anti-integrin αvβ6 antibody contained in the recovered solution was determined, and the adsorption rate of anti-integrin αvβ6 antibody in the antibody adsorption reaction was calculated.

[4] = molecular target: Integrin αvβ8 (ACRO Biosystems, IT8-H52W4) (UniProt P06756 31-992; P26012 43-684); assay: as above
Procedure: as §1, §2, §3

[5] = molecular target: Integrin αvβ5 (ACRO Biosystems, IT5-H52W5) (UniProt P06756 31-992; P18084 24-719); assay: as above
Procedure: as §1, §2, §3

[6] = molecular target: Integrin αvβ3 (ACRO Biosystems, IT3-H52E3) (UniProt P06756 31-992; P05106 27-718); assay: as above
Chain of Integrin αvβ3 (ACRO Biosystems, IT3-H52E3) (P06756 31-992, chain 1 of 2): as the sequence (P06756 31-992 limits assumed, chain 1 of 2) above
Chain of Integrin αvβ3 (ACRO Biosystems, IT3-H52E3) (P05106 27-718, chain 2 of 2): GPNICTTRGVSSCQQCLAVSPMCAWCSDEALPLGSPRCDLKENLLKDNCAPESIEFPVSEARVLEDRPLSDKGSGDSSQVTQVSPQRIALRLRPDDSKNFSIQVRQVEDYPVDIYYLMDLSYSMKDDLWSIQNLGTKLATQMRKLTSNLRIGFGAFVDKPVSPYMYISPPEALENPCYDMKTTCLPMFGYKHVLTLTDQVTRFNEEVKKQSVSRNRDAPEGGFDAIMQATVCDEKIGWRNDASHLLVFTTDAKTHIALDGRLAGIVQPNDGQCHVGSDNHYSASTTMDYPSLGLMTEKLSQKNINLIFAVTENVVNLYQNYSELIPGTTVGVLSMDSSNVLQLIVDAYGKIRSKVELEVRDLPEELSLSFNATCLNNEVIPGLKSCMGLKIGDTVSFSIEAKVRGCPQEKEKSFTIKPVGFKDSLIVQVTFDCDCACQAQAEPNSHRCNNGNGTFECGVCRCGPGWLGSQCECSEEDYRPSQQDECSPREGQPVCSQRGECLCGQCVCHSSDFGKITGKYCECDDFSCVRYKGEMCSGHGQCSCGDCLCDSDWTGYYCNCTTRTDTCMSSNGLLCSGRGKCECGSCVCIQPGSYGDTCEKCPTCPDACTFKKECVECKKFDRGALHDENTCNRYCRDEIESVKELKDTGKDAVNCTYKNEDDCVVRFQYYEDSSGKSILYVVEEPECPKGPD
Procedure: as §1, §2, §3

[7] = molecular target: T1, human integrin αvβ6 (ACROBiosystems, …); assay: blocking ELISA: integrin αvβ6 coated, antibody added, then fibronectin 2 µg/mL; bound fibronectin detected, inhibition effect (%)
Procedure: Furthermore, a competitive assay with fibronectin for binding to integrin αvβ6 was performed to confirm the function of the obtained monoclonal antibodies. Briefly, a 96-well microtiter plate was coated with 150 μL/well of 2 μg/mL human integrin αvβ6 (ACROBiosystems, Cat. No. IT6-H52E1) overnight at 4° C., then blocked and incubated with 120 μL of monoclonal antibodies (0.0001-10 μg/mL) for 60 min at room temperature. After washing, the plate was incubated with 100 μL of 2 μg/mL fibronectin (FC010; MilliporeSigma, Burlington, MA) for 60 minutes at room temperature. After washing, an anti-fibronectin antibody (1:5000 dilution; ab2413; Abcam) was added to the plate, and the plate was incubated for 60 min at room temperature. […] After washing, the plate was incubated with 3,3′,5,5′-tetramethylbenzidine for 10 minutes, and the absorbance at 450 nm was measured to detect fibronectin bound to integrin αvβ6 on the solid phase. […] To calculate the binding inhibition rate, blank wells coated with integrin αvβ6 were incubated with fibronectin in the absence of antibody, and the optical density (OD) at 450 nm was measured in the same manner as above. The binding inhibition rate (%) was calculated according to the following formula. […]

Binder	Kd [2] [nM]	further results
RGDS (also called RGD peptide; RGD motif) [Peptide RGDS]	–	binding result [1]: binds
B1	5.18	–
B2	4.54	binding result [3]: no binding (tested: 25 µg/mL); binding result [4]: no binding (tested: 25 µg/mL); binding result [5]: no binding (tested: 25 µg/mL); binding result [6]: no binding (tested: 25 µg/mL); IC50 (read off the curve) [7]: ~0.2 µg/mL
B3	5.96	–
B4	10.6	–
B5	8.25	–
B6	8.91	–
B7	3.15	–
B8	20.8	–
B9	1.95	–
B10	15	–
